Changes are numbered by the printed parent chain. Names may count otherwise.
System: engineered chimeric receptor SEQ ID NO: 33 and its mutants (human α7-nAChR ligand binding domain / human GlyRα1 ion pore domain) in Lenti-X 293T cells
Experiment: YFP fluorescence quenching anion reporter plate reader assay (percent quench, EC50)
Format: cell-based
Details: for YFP fluorescence quenching using CNL001 (percent quench): receptor named in row; for YFP fluorescence quenching using Varenicline, 3 nM var: ligand Varenicline 3 nM; for YFP fluorescence quenching using Varenicline, 30 nM var: ligand Varenicline 30 nM; for YFP fluorescence quenching using Varenicline, 300 nM var: ligand Varenicline 300 nM; for YFP fluorescence quenching using Varenicline, 500 nM var: ligand Varenicline 500 nM; for YFP fluorescence quenching using Varenicline, 1 uM var: ligand Varenicline 1 uM
Method in brief: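 Lenti-X 293T cells co-expressing an anion-quenchable YFP were transiently transfected with receptor DNA, then ligand was added in NaI-substituted buffer (pH 7.2) after 30 min at 37 °C. Fluorescence was read about 2 min; percent quench = mean of last 10 s over 15 s pre-ligand baseline.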

[1] = 1 nM CNL001, first column so headed
[2] = 1 nM CNL001, second column so headed
[3] = 1 nM brd (TC-5619/Bradanicline)
[4] = 3 nM brd (TC-5619/Bradanicline)
[5] = 10 nM CNL001, first column so headed
[6] = 10 nM CNL001, second column so headed
[7] = 10 nM brd (TC-5619/Bradanicline)
[8] = 30 nM brd (TC-5619/Bradanicline)
[9] = 50 nM CNL001, first column so headed
[10] = 50 nM CNL001, second column so headed
[11] = 100 nM CNL001, first column so headed
[12] = 100 nM CNL001, second column so headed
[13] = 100 nM brd (TC-5619/Bradanicline)
[14] = 300 nM brd (TC-5619/Bradanicline)
[15] = 1 uM CNL001, first column so headed
[16] = 1 uM CNL001, second column so headed

B1: CODA1047: engineered receptor: R101F, Y210V in SEQ ID NO: 33 (protein)
chain: MRCSPGGVWLALAASLLHVSLQGEFQRKLYKELVKNYNPLERPVANDSQPLTVYFSLSLLQIMDVDEKNQVLTTNIWLQMSWTDHYLQWNVSEYPGVKTVFFPDGQIWKPDILLYNSADERFDATFHTNVLVNSSGHCQYLPPGIFKSSCPMDLKNFPMDVQTCKLKFGSWSYGGWSLDLQMQEADISGYIPNGEWDLVGIPGKRSERFVECCKEPYPDVTFTVTMRRRMGYYLIQMYIPSLLIVILSWISFWINMDAAPARVGLGITTVLTMTTQSSGSRASLPKVSYVKAIDIWMAVCLLFVFSALLEYAAVNFVSRQHKELLRFRRKRRHHKSPMLNLFQEDEAGEGRFNFSAYGMGPACLQAKDGISVKGANNSNTTNPPPAPSKSPEEMRKLFIQRAKKIDKISRIGFPMAFLIFNMFYWIIYKIVRREDVHNQ
modifications: synthetic sequence of chimeric LGIC
YFP fluorescence quenching using CNL001 (percent quench) [1]: −7.82%
YFP fluorescence quenching using CNL001 (percent quench) [2]: −8.382%
YFP fluorescence quenching using TC-5619/Bradanicline (percent quench) [3]: −5.548%
YFP fluorescence quenching using TC-5619/Bradanicline (percent quench) [4]: −9.432%
YFP fluorescence quenching using CNL001 (percent quench) [5]: −5.381%
YFP fluorescence quenching using CNL001 (percent quench) [6]: −1.431%
YFP fluorescence quenching using TC-5619/Bradanicline (percent quench) [7]: −3.068%
YFP fluorescence quenching using TC-6683 (percent quench) (30 nM TC-6683): −24.195%
YFP fluorescence quenching using TC-5619/Bradanicline (percent quench) [8]: 2.368%
YFP fluorescence quenching using CNL001 (percent quench) [9]: −0.999%
YFP fluorescence quenching using CNL001 (percent quench) [10]: 3.909%
YFP fluorescence quenching using ABT-126 (percent quench) (50 nM abt (ABT-126)): −14.1%
YFP fluorescence quenching using CNL001 (percent quench) [11]: −0.823%
YFP fluorescence quenching using CNL001 (percent quench) [12]: −5.885%
YFP fluorescence quenching using ABT-126 (percent quench) (100 nM abt (ABT-126)): −11.72%
YFP fluorescence quenching using TC-5619/Bradanicline (percent quench) [13]: 47.529%
YFP fluorescence quenching using TC-6683 (percent quench) (300 nM TC-6683): −24.234%
YFP fluorescence quenching using ABT-126 (percent quench) (300 nM abt (ABT-126)): −12.98%
YFP fluorescence quenching using TC-5619/Bradanicline (percent quench) [14]: 74.413%
YFP fluorescence quenching using CNL001 (percent quench) [15]: 1.638%
YFP fluorescence quenching using CNL001 (percent quench) [16]: 3.483%
YFP fluorescence quenching using ABT-126 (percent quench) (1 uM abt (ABT-126)): −15.09%
YFP fluorescence quenching using TC-6683 (percent quench) (3 uM TC-6683): −21.291%
YFP fluorescence quenching (percent quench) (10 uM ach (acetylcholine)): −4.26%
YFP fluorescence quenching using TC-6683 (percent quench) (30 uM TC-6683): −16.363%
YFP fluorescence quenching using TC-6683 (percent quench) (100 uM TC-6683): −24.9%
YFP fluorescence quenching (percent quench) (100 uM ach (acetylcholine)): −13.05%
YFP fluorescence quenching (percent quench) (300 uM ach (acetylcholine)): −11.73%
YFP fluorescence quenching (percent quench) (500 uM ach (acetylcholine)): −10.75%
YFP fluorescence quenching (percent quench) (1 mM ach (acetylcholine)): −8.81%
YFP fluorescence quenching (percent quench) (3 mM ach (acetylcholine)): −6.77%
YFP fluorescence quenching (percent quench) (10 mM ach (acetylcholine)): −1.03%
YFP fluorescence quenching using Varenicline, 3 nM var (first column): −3.035
YFP fluorescence quenching using Varenicline, 3 nM var (second column): −0.786
YFP fluorescence quenching using Varenicline, 30 nM var (first column): −5.181
YFP fluorescence quenching using Varenicline, 30 nM var (second column): 0.669
YFP fluorescence quenching using Varenicline, 300 nM var (first column): −2.748
YFP fluorescence quenching using Varenicline, 300 nM var (second column): −6.708
YFP fluorescence quenching using Varenicline, 500 nM var (first column): −9.123
YFP fluorescence quenching using Varenicline, 500 nM var (second column): −9.869
YFP fluorescence quenching using Varenicline, 1 uM var (first column): −6.702
YFP fluorescence quenching using Varenicline, 1 uM var (second column): −7.26

B2: CODA1053: engineered receptor: R101M, L131A in SEQ ID NO: 33 (protein)
chain: B1 chain with F101M, L131A, V210Y
modifications: synthetic sequence of chimeric LGIC
YFP fluorescence quenching using CNL001 (percent quench) [1]: −8.554%
YFP fluorescence quenching using CNL001 (percent quench) [2]: −13.711%
YFP fluorescence quenching using TC-5619/Bradanicline (percent quench) [3]: 0.008%
YFP fluorescence quenching using TC-5619/Bradanicline (percent quench) [4]: 43.21%
YFP fluorescence quenching using CNL001 (percent quench) [5]: 39.631%
YFP fluorescence quenching using CNL001 (percent quench) [6]: 66.809%
YFP fluorescence quenching using TC-5619/Bradanicline (percent quench) [7]: 77.672%
YFP fluorescence quenching using TC-5619/Bradanicline (percent quench) [8]: 76.277%
YFP fluorescence quenching using CNL001 (percent quench) [9]: 82.122%
YFP fluorescence quenching using CNL001 (percent quench) [10]: 82.031%
YFP fluorescence quenching using ABT-126 (percent quench) (50 nM abt (ABT-126)): −27.01%
YFP fluorescence quenching using CNL001 (percent quench) [11]: 83.312%
YFP fluorescence quenching using CNL001 (percent quench) [12]: 83.986%
YFP fluorescence quenching using ABT-126 (percent quench) (100 nM abt (ABT-126)): −18.76%
YFP fluorescence quenching using TC-5619/Bradanicline (percent quench) [13]: 76.856%
YFP fluorescence quenching using ABT-126 (percent quench) (300 nM abt (ABT-126)): −17.8%
YFP fluorescence quenching using TC-5619/Bradanicline (percent quench) [14]: 75.32%
YFP fluorescence quenching using CNL001 (percent quench) [15]: 84.363%
YFP fluorescence quenching using CNL001 (percent quench) [16]: 83.877%
YFP fluorescence quenching using ABT-126 (percent quench) (1 uM abt (ABT-126)): −6.55%
YFP fluorescence quenching (percent quench) (10 uM ach (acetylcholine)): −3.98%
YFP fluorescence quenching (percent quench) (100 uM ach (acetylcholine)): −11%
YFP fluorescence quenching (percent quench) (300 uM ach (acetylcholine)): −7.92%
YFP fluorescence quenching (percent quench) (500 uM ach (acetylcholine)): 7.36%
YFP fluorescence quenching (percent quench) (1 mM ach (acetylcholine)): 57.28%
YFP fluorescence quenching (percent quench) (3 mM ach (acetylcholine)): 60.54%
YFP fluorescence quenching (percent quench) (10 mM ach (acetylcholine)): 79.46%
YFP fluorescence quenching using Varenicline, 3 nM var (first column): 74.835
YFP fluorescence quenching using Varenicline, 3 nM var (second column): 76.119
YFP fluorescence quenching using Varenicline, 30 nM var (first column): 77.608
YFP fluorescence quenching using Varenicline, 30 nM var (second column): 79.015
YFP fluorescence quenching using Varenicline, 300 nM var (first column): 80.71
YFP fluorescence quenching using Varenicline, 300 nM var (second column): 79.002
YFP fluorescence quenching using Varenicline, 500 nM var (first column): 78.709
YFP fluorescence quenching using Varenicline, 500 nM var (second column): 78.884
YFP fluorescence quenching using Varenicline, 1 uM var (first column): 79.688
YFP fluorescence quenching using Varenicline, 1 uM var (second column): 80
